The target of experiment [1] is T1, antigenic peptide located at positions 209-226 in the heavy chain α3 domain of the HLA-G molecules … (human).
T1 construct: Synthetic peptide, coated on the ELISA plate at 2 ug/ml; also called immunogen
T1 peptide: KTHVTHHPVFDYEATLRC
The experiment in a line: indirect ELISA, peptide coated at 2 ug/ml; antibody stock 2.8 mg/mL.
Experimental: (§1) The antigen (SEQ No. 19 [sequence]) was diluted with the coating buffer, with the final concentration of 2 ug/ml, 100 ul/well, and placed at 4° C. overnight; washed with the wash buffer twice, blocked with the blocking buffer at 200 ul/well, incubated at 37° C. for 2 hours; then washed once with the wash buffer. The purified antibody was diluted by 2-fold starting from 200-fold (PBS), and the blank control (blank) was PBS, 100 ul/well, and incubated at 37° C. for 1 hour; and then washed 3 times with the wash buffer. The secondary antibody diluted with PBS by 20,000-fold was added, 100 ul/well, and incubated in a 37° C. incubator for 1 hour; taken out and washed 3 times with a wash buffer. Then the color development was performed with a developing solution of 100 ul/well for 5-15 minutes. Then 50 ul of stop solution was added to each well to stop. The absorbance value was measured at dual wavelengths (450, 630), and a chart was drawn for analysis.

Experiment [2] has as its target T1, antigenic peptide located at positions …. The experiment is described as follows: indirect ELISA, peptide coated at 2 ug/ml, antibody in 2-fold dilutions from 200-fold; logistic fit, 150000×A/antibody concentration. In general terms: An ELISA detects its analyte on a solid surface through an enzyme-linked reagent.
Experimental: as §1
Experiment [3] concerns the target T2, HLA-G3 standard protein (human, UniProt P17693-3 25-154).
T2 construct: Standard protein used in immunoblotting
The experiment is described as follows: immunoblot of HLA-G isoform standard proteins. For orientation: Immunoblotting shows a protein as a band on a membrane.
Experimental: (§2) After electroporating the standard proteins of HLA-G isoforms (HLA-G1, HLA-G2, HLA-G3, HLA-G4, HLA-G5, HLA-G6 and HLA-G7), 5% skimmed milk powder was used to block at room temperature for 4 hours, and washed with 0.2% TBS (Tewen-20 PBS).

Experiment [4] addresses T3, HLA-G4 standard protein (human, UniProt P17693-4 25-246).
T3 construct: Standard protein used in immunoblotting
The experiment in a line: immunoblot of HLA-G isoform standard proteins.
Experimental: as §2

Experiment [5] deals with T4, HLA-G7 standard protein (human, UniProt P17693-7 25-116).
T4 construct: Standard protein used in immunoblotting
The experiment is described as follows: immunoblot of HLA-G isoform standard proteins.
Experimental: as §2

B1: monoclonal antibody (YWHG-3) against HLA-G1, -G2, -G5 and HLA-G6 isoforms (antibody, IgG1, V domains shown)
VH: LVQLQQSGGGLVKPGGSLKLSCAASGFTFSDYNMYWVRQTPEKRLEWVATISDGGRSTFYLDSVKGRFTISRDNAKNNLYLQINNLKSEDTAIYYCVRDDYWGQGTTLTVSS
VL: DIMMTQTPLSLPVSLGDQASISCRSSQSLVHSTGNTFLNWYLQKPGQSPKLLIYKVSNRFSGVSDRFSGSGSGTDFTLKIRRVEAEDLGVYFCSQSTHVPWTFGGGTKLEIK
notes: Used biotin-labelled in the HLA-G5 ELISA and FITC-labelled in flow cytometry; also called hybridoma CCTCC NO: 202121
In the case of B1, the “antibody dilution factor corresponding to 1/2 OD value” in experiment [1] turned out to be 205000 fold dilution. Besides, in experiment [2], the Ka stood at 1.1e+10 M⁻¹. For the same molecule, the binding result in experiment [3], in experiment [4] and in experiment [5] was “no binding (tested: 1.0 ug/ml)” in each case.

The values are drawn from patent US20250034261A1 (TAIZHOU ENZE MEDICAL CENTER GROUP, published 2025).
